Experimental data taken from US20040072255.

Assays:
[1] = tested on: rat fast skeletal troponin I, beta or diphosphorylated form
[2] = tested on: rat fast skeletal troponin I, alpha or monophosphorylated form
Chain of rat fast skeletal troponin I, alpha or monophosphorylated form (chain, as listed by the source): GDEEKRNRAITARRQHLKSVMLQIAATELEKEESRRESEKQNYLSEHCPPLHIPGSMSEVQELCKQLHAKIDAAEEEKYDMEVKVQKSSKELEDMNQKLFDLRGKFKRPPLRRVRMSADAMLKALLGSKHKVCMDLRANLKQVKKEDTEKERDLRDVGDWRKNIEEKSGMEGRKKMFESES

Chain of rat fast skeletal troponin I, beta or diphosphorylated form (chain, as listed by the source): as above

Substance: Protein phosphatase-1 (Sigma)
- dephosphorylation of myofibrils prior to 2-dimensional SDS-PAGE [1]: Neither form was evident in samples after dephosphorylation with PP-I
- dephosphorylation of myofibrils prior to 2-dimensional SDS-PAGE [2]: Neither form was evident in samples after dephosphorylation with PP-I
